Source: article PMC7064775, “Cyclic di-GMP Signaling in Bacillus subtilis Is Governed by Direct Interactions of Diguanylate Cyclases and Cognate Receptors” (mBio, 2020)

T1: DgcP-StrepII (Bacillus subtilis NCIB 3610, UniProt O34325 1-579)
T1 construct: soluble diguanylate cyclase DgcP of Bacillus subtilis NCIB 3610, residues 1 to 579, full length (construct pPB25); also called pPB25; source: E. coli BL21(DE3), purified (StrepTrap HP, SEC); not shown: StrepII, C-terminal, kept
T1 sequence (looked up): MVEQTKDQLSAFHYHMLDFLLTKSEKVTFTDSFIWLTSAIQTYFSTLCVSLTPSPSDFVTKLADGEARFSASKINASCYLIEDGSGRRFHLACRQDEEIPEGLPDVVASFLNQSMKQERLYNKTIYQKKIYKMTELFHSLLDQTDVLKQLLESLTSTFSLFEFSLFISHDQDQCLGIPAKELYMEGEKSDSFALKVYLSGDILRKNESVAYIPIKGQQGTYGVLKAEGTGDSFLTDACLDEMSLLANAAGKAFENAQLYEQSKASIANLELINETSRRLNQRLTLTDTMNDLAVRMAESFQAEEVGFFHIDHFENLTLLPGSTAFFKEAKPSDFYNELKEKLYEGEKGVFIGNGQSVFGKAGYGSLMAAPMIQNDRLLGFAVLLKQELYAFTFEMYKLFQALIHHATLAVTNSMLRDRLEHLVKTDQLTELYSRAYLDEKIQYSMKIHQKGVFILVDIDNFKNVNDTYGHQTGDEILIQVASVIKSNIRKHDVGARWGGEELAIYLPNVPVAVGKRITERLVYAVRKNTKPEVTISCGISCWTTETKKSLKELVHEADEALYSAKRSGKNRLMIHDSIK

T2: GST-His6-DgcK-ΔN175 (Bacillus subtilis NCIB 3610, UniProt P54595 176-359)
T2 construct: Diguanylate cyclase DgcK of Bacillus subtilis NCIB 3610, soluble domain, residues 176 to 359 (construct pAT02a); also called pAT02a; source: E. coli BL21(DE3), purified (Ni-NTA, SEC); not shown: GST, N-terminal, kept; His6, N-terminal, kept
T2 sequence (looked up): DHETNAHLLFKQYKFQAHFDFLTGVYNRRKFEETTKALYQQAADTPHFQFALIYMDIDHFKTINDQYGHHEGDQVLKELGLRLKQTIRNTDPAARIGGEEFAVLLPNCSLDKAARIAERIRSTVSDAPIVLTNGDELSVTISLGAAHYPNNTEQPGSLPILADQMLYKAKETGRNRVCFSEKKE

B1: His6-DgcK-ΔN175 (domain or fragment, Bacillus subtilis NCIB 3610, UniProt P54595 176-359, looked up)
chain: T2 sequence (looked up)
notes: Diguanylate cyclase DgcK of Bacillus subtilis NCIB 3610, soluble domain, residues 176 to 359 (construct pAT02b); also called His-DgcK-ΔN175; soluble domain of DgcK; source: E. coli BL21(DE3), purified (Ni-NTA, SEC); also coexpressed with YdaK-ΔN111 in E. coli BL21(DE3), in lysate; not shown: His6, N-terminal, kept
B2: GST-His6-DgrA (natural protein, Bacillus subtilis NCIB 3610, UniProt P38491 1-217, looked up)
chain: MIEIGENVLLEYIEENELKKAKSKAVSIENNELLIAYPVDVVTGRTVILHNDMEVTVEFVGKDEVPYRFISRIKGKVKDKLQMICLEMPPREKMKRIQRRQYVRTDAVLDVQIQPGNEEEIRTLSYNISAGGIAVVLADGLSFQSGESLRLIIRLPEEEHTRQIETEAVVRRIFNDPKSEKRKMTLEYSEIAAGDQQALLQYCIRRQLNKRRKARME
notes: PilZ domain c-di-GMP receptor DgrA of Bacillus subtilis NCIB 3610, residues 1 to 217, full length (construct pPB48); also called GST-His-DgrA; PilZ protein DgrA; source: E. coli BL21(DE3), purified (Ni-NTA, SEC); not shown: GST, N-terminal, kept; His6, N-terminal, kept
B3: GST-YdaK-ΔN111 (domain or fragment, Bacillus subtilis NCIB 3610, UniProt P96585 112-283, looked up)
chain: DITAELRRSMTRLQSEIKSYVAVDRVTGFDNKQRMKLELSEEIKRAERYGNSFVFLLLHMHYFKEFKSLYGEKETDRLFQYVGQQIRTSVRETDKKFRPSDERIGIVLTHTPAEHMPAVLTKLKKQLDTYQLENGKYVSLTFHVCYLPYRNDIQTADQFLEELENEMMMNEL
notes: c-di-GMP receptor YdaK of Bacillus subtilis NCIB 3610, soluble domain (degenerated GGDEF domain), residues 112 to 283 (construct pAT03c); also called pAT03c; source: E. coli BL21(DE3), purified (GSTrap FF, SEC); not shown: GST, N-terminal, kept
B4: GST-His6-YdaK-ΔN111 (domain or fragment, Bacillus subtilis NCIB 3610, UniProt P96585 112-283, looked up)
chain: B3 chain
notes: c-di-GMP receptor YdaK of Bacillus subtilis NCIB 3610, soluble domain, residues 112 to 283 (construct pAT03a); also called pAT03a; not shown: GST, N-terminal, kept
B5: His6-YdaK-ΔN111 (domain or fragment, Bacillus subtilis NCIB 3610, UniProt P96585 112-283, looked up)
chain: B3 chain
notes: c-di-GMP receptor YdaK of Bacillus subtilis NCIB 3610, soluble domain, residues 112 to 283 (construct pAT03b); also called native YdaK; pAT03b; source: E. coli BL21(DE3), purified (Ni-NTA, SEC); not shown: His6, N-terminal, kept

Columns and labels:
DgcK-ΔN175 = biological target: T3, DgcK-ΔN175 (Bacillus subtilis, UniProt P54595); assay: HPLC of nucleotide co-purified with the denatured protein; type: binding; details: ligand co-purified from E. coli host
T3 construct: soluble GGDEF domain, residues 176 to 359 (6 TM helices removed); N-terminal His6 or GST-His6, from E. coli BL21(DE3)

YdaK-ΔN111 [1] = biological target: T4, YdaK-ΔN111 (Bacillus subtilis, UniProt P96585); assay: hydrogen-deuterium exchange mass spectrometry; type: binding; details: 50 µM protein, 1 mM c-di-GMP; pH 7.5, 20 mM MgCl2, 25 °C; I-site (RXXD)
T4 construct: soluble degenerate GGDEF domain, residues 112 to 283 (4 TM helices removed), from E. coli BL21(DE3)

YdaK-ΔN111 [2] = biological target: T5, YdaK-ΔN111 (Bacillus subtilis, UniProt P96585, R202A); assay: hydrogen-deuterium exchange mass spectrometry; details: 50 µM protein, 1 mM c-di-GMP; pH 7.5, 20 mM MgCl2, 25 °C; I-site mutant, tested for loss of binding
T5 construct: soluble degenerate GGDEF domain, residues 112 to 283 (4 TM helices removed), from E. coli BL21(DE3)

GST-His6-DgrA = biological target: B2; assay: pull-down; 2 nmol GST-His6-DgrA (or GST control) immobilised on glutathione-Sepharose beads, 20 nmol His6-DgcK-ΔN175, with or without 2 mM c-di-GMP; 4°C, buffer A; Coomassie-stained SDS-PAGE; details: both partners purified
DgcP-StrepII = biological target: T1, DgcP-StrepII; assay: pull-down; 2 nmol DgcP-StrepII immobilised on Strep-Tactin-Sepharose, 20 nmol GST-His6-DgrA, with or without 2 mM c-di-GMP; buffer A; elution with 50 mM D-biotin; Coomassie-stained SDS-PAGE; details: both partners purified
His6-DgcK-ΔN175 [3] = biological target: B1; assay: pull-down; 2 nmol His6-DgcK-ΔN175 immobilised on nickel-Sepharose beads, 20 nmol prey, with or without added c-di-GMP; buffer A (20 mM HEPES-Na pH 7.5, 250 mM NaCl, 20 mM MgCl2, 20 mM KCl, 0.05% Tween); elution with 500 mM imidazole; Coomassie-stained SDS-PAGE; details: both partners purified
His6-DgcK-ΔN175 [4] = biological target: B1; assay: pull-down; 2 nmol GST-His6-YdaK-ΔN111 (or GST) immobilised on glutathione-Sepharose 4B, 20 nmol His6-DgcK-ΔN175, with or without added c-di-GMP; 4°C, buffer A (20 mM HEPES-Na pH 7.5, 250 mM NaCl, 20 mM MgCl2, 20 mM KCl, 0.05% Tween); Coomassie-stained SDS-PAGE; details: both partners purified
GST-His6-DgcK-ΔN175 = biological target: T2, GST-His6-DgcK-ΔN175; assay: pull-down; 2 nmol GST-His6-DgcK-ΔN175 immobilised on glutathione-Sepharose 4B, 20 nmol His6-YdaK-ΔN111 or its R202A variant, with or without added c-di-GMP; 4°C, buffer A; Coomassie-stained SDS-PAGE; details: both partners purified

T5 sequence (P96585 112-283 R202A): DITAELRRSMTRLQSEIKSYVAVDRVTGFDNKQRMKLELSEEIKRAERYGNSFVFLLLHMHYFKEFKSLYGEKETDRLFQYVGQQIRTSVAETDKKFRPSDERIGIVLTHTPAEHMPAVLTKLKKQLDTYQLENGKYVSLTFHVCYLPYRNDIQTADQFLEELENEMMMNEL

Molecule: Nc1nc2c(ncn2[C@@H]2O[C@@H]3COP(=O)(O)O[C@H]4[C@@H](O)[C@H](n5cnc6c(=O)[nH]c(N)nc65)O[C@@H]4COP(=O)(O)O[C@H]3[C@H]2O)c(=O)[nH]1 [c-di-GMP]
- loading (DgcK-ΔN175): ~ 25%
- decrease in H/D exchange (YdaK-ΔN111 [1]): presence of c-di-GMP resulted in a strong decrease in H/D exchange in many parts of YdaK
- no alterations in HDX (YdaK-ΔN111 [2]): indicating the inability of c-di-GMP to bind to this variant

Molecule: B1
- binding result (GST-His6-DgrA): binds

Molecule: B2
- binding result (DgcP-StrepII): binds

Molecule: B3
- binding result (His6-DgcK-ΔN175 [3]): binds

Molecule: B4
- binding result (His6-DgcK-ΔN175 [4]): binds

Molecule: B5
- binding result (GST-His6-DgcK-ΔN175): binds
